Sequences and labels used below:
B1: COVID19_P01_G05 (scFv, V domains shown)
VH: QVQLVQSGAEVKKPGSSVKVSCKASGYTFTDFYIHWVRQAPGQGLEWMGGIIPIFGTANYAQKFQGRVTITADESTSTAYMELSSLRSEDTAVYYCALETVMGGMDVWGQGTLVTVSS
VL: SSYVLTQPPSVSVAPGKTARITCGGNNIGSKSVHWYQQKPGQAPVLVIYYDSDRPSGIPERFSGSNSGNTATLTISRVEAGDEADYYCQVWDSSSHYVFGGGTKLTVLA
B2: COVID19_P14_B07 (scFv, V domains shown)
VH: QVQLVQSGAEVKKPGSSVKVSCKASGYTFTSYGISWVRQAPGQGLEWMGWINPNSGGTNYAQKFQGRVTITADESTSTAYMELSSLRSEDTAVYYCAVETVMGGFTVWGQGTLVTVSS
VL: B1 VL with H96D
B3: COVID19_P02_A04 (scFv, V domains shown)
VH: QVQLVQSGAEVKKPGSSVKVSCKASGYAFTSYYMHWVRQAPGQGLEWMGVIDPSEGSTSNARKFQGRVTITADESTSTAYMELSSLRSEDTAVYYCVSDTVMGGMDVWGQGTLVTVSS
VL: B1 VL with I48V, Y50D, H96L
B4: COVID19_P01_B08 (scFv, V domains shown)
VH: QVQLVQSGAEVKKPGSSVKVSCKASGGTFSNFAITWVRQAPGQGLEWMGVINPGGGSTTYAQTFQGRVTITADESTSTAYMELSSLRSEDTAVYYCARDTVMGGMDVWGQGTLVTVSS
VL: B1 VL with H96D
B5: COVID19_P01_E11 (scFv, V domains shown)
VH: QVQLVQSGAEVKKPGSSVKVSCKASGGTFSNYTITWVRQAPGQGLEWLGWISAYNGNTDYAQKLQGRVTITADESTSTAYMELSSLRSEDTAVYYCARDALMGGMDVWGQGTLVTVSS
VL: B1 VL with S94R, H96D
B6: COVID19_P01_H10 (scFv, V domains shown)
VH: QVQLVQSGAEVKKPGSSVKVSCKASGGTFGNYPITWVRQAPGQGLEWMGIIYPGDSDARYRPSFQGRVTITADESTSTAYMELSSLRSEDTAVYYCARDFSMGGMDVWGQGTLVTVSS
VL: B1 VL with S93D, H96D
notes: also called COVID19_PO1_H10
B7: COVID19_P14_B05 (scFv, V domains shown)
VH: B4 VH with N31S, F32Y, A33T, T35S, V50I, G54S, T59S, T63K, D106G
VL: B1 VL with H96F
B8: COVID19_P02_A11 (scFv, V domains shown)
VH: B4 VH with G27S, N31M, T35N, M48V, G54R, G56S, T63K
VL: B1 VL with S93R, H96D
B9: COVID19_P13_B05 (scFv, V domains shown)
VH: B2 VH with G33D, S35N, V98R, E99D, V101F, M102F, F105M, T106D
VL: B1 VL with H96Y
B10: COVID19_P13_H02 (scFv, V domains shown)
VH: B1 VH with D31G, I34M, H35Q, I52T, F55L, L98R, T100I
VL: B1 VL with V90S, H96D
B11: COVID19_P01_H04 (scFv, V domains shown)
VH: B1 VH with T28P, T30S, D31S, F32Y, Y33E, H35N, I52T, L98D
VL: B1 VL with S95N, H96D
B12: COVID19_P13_D11 (scFv, V domains shown)
VH: B1 VH with T28S, T30N, D31A
VL: B1 VL with S93G, H96D
B13: COVID19_P13_B12 (scFv, V domains shown)
VH: B1 VH with Y33H, I34M
VL: B1 VL with H96D
B14: COVID19_P14_G01 (scFv, V domains shown)
VH: B1 VH with T28N, T30I, D31N, F32Y, I34L, I52T, T57I, L98R
VL: B1 VL with N27K, S94G, H96D
B15: COVID19_P13_D01 (scFv, V domains shown)
VH: B1 VH with T30S, Y33D, H35N, A97G, L98M, E99D, D106T, V107S
VL: B1 VL with S95H, H96D
B16: COVID19_P13_A08 (scFv, V domains shown)
VH: B1 VH with T30I, D31N, F32Y, Y33D, H35N, I52T, L98R, E99D
VL: B1 VL with S94R, H96D
B17: COVID19_P02_C07 (scFv, V domains shown)
VH: B1 VH with T30S, D31S, F32Y, T57E, N59E, Q62H, L98M
VL: B1 VL with H96D
B18: COVID19_P02_D10 (scFv, V domains shown)
VH: B1 VH with T28M, D31E, I34M, I54V, F55S, L98R
VL: B1 VL with H96D
B19: COVID19_P14_D07 (scFv, V domains shown)
VH: B1 VH with T30S, D31S, T57E, N59E, Q62H, L98M
VL: B1 VL with H96D
B20: COVID19_P14_E01 (scFv, V domains shown)
VH: B1 VH with D31S, F32Y, I34M, I52T, L98V, D106Q, V107M
VL: B1 VL with H96D
B21: COVID19_P14_B08 (scFv, V domains shown)
VH: B1 VH with D31S, F32Y, I34V, I52L, F55L, A58P, N59H, D106T, V107A
VL: B1 VL with H96D
B22: COVID19_P14_E07 (scFv, V domains shown)
VH: B1 VH with T30I, D31N, F32Y, Y33D, H35N, I52T, L98R, E99D
VL: B1 VL with S94H, H96D
B23: COVID19_P14_F08 (scFv, V domains shown)
VH: B1 VH with D31A, F55S, V68A, L98R, T100V
VL: B1 VL with S94T, H96D
B24: COVID19_P14_C01 (scFv, V domains shown)
VH: B1 VH with T30S, I34L, I52T, L98M
VL: B1 VL with H96D

Positions count from the first letter of the chain named.

The first assay concerns the target T1, SARS-CoV-2 Receptor Binding Domain (RBD) protein (SARS-CoV-2, UniProt P0DTC2 319-541).
T1 construct: also called Sars-Cov-2 (COV2)
The assay can be described thus: SPR (Carterra LSA).
For orientation: Kd means the concentration at which binding is half-saturated. Low readings indicate higher affinity, high ones lower affinity. Consider B1, for which the Kd is < 50 nM.

Take B2: the Kd is < 50 nM.

In the case of B3, the Kd is < 50 nM.

For B4, the Kd was < 50 nM.

Regarding B5, the Kd was < 50 nM.

For the molecule B6, the Kd is < 50 nM.

For the molecule B7, the Kd was < 50 nM.

As for B8, the Kd is < 50 nM.

Consider B9, for which the Kd was < 50 nM.

Regarding B10, the Kd was < 50 nM.

B11: the Kd is < 50 nM.

As for B12, the Kd is < 50 nM.

B13: the Kd was < 50 nM.

As to B14, the Kd was < 50 nM.

B15: the Kd is < 50 nM.

On to B16, for which the Kd was < 50 nM.

Consider B17, for which the Kd is < 50 nM.

In the case of B18, the Kd is < 50 nM.

Turning to B19, the Kd was < 50 nM.

Regarding B20, the Kd is < 50 nM.

As to B21, the Kd was < 50 nM.

On to B22, for which the Kd is < 50 nM.

On to B23, for which the Kd was < 50 nM.

With B24, the Kd is < 50 nM.

The target in a further assay is T1, SARS-CoV-2 Receptor Binding Domain …. The assay can be described thus: SPR (Carterra LSA); scFv captured by anti-V5, RBD as analyte.
By koff is commonly meant the rate constant with which the complex falls apart. A low value points to a long-lived complex. The term kon denotes a measure of how fast the partners come together. Higher therefore signals fast association. With B1, the Kd amounted to 2.89 nM, the koff amounted to 0.00123 s⁻¹ and the kon was 427000 M⁻¹ s⁻¹.

Molecule B2 yielded a Kd of 34.2 nM, a koff of 0.0131 s⁻¹ and a kon of 383000 M⁻¹ s⁻¹.

Molecule B3 registered a Kd of 41.4 nM, a koff of 0.0187 s⁻¹ and a kon of 451000 M⁻¹ s⁻¹.

As for B4, the Kd was 33.8 nM, the koff amounted to 0.0149 s⁻¹ and the kon was 442000 M⁻¹ s⁻¹.

Regarding B5, binding was put at a Kd of 5.87 nM, the koff came to 0.000586 s⁻¹ and the kon turned out to be 99900 M⁻¹ s⁻¹.

The molecule B6 came in with a Kd of 39.3 nM, a koff of 0.0148 s⁻¹ and a kon of 377000 M⁻¹ s⁻¹.

For the molecule B7, the Kd was 48 nM, the koff was determined as 0.0141 s⁻¹ and the kon is 294000 M⁻¹ s⁻¹.

The molecule B8 registered a dissociation constant (Kd) of 45.1 nM, a koff of 0.0147 s⁻¹ and a kon of 326000 M⁻¹ s⁻¹.

On to B9, for which binding was characterised by a dissociation constant (Kd) of 21.9 nM, the koff was 0.0037 s⁻¹ and the kon stood at 170000 M⁻¹ s⁻¹.

On to B10, for which the Kd was 40.6 nM, the koff amounted to 0.0084 s⁻¹ and the kon is 210000 M⁻¹ s⁻¹.

In the case of B11, binding was characterised by a dissociation constant (Kd) of 0.95 nM, the koff worked out at 0.00056 s⁻¹ and the kon stood at 590000 M⁻¹ s⁻¹.

Consider B12, for which the Kd turned out to be 35 nM, the koff stood at 0.011 s⁻¹ and the kon was found to be 310000 M⁻¹ s⁻¹.

As to B13, binding was characterised by a dissociation constant (Kd) of 32.7 nM, the koff was 0.0049 s⁻¹ and the kon turned out to be 150000 M⁻¹ s⁻¹.

The molecule B14 gave a Kd of 8.45 nM, a koff of 0.000842 s⁻¹ and a kon of 99700 M⁻¹ s⁻¹.

As for B15, binding was characterised by a dissociation constant (Kd) of 3.14 nM, the koff stood at 0.00035 s⁻¹ and the kon was determined as 110000 M⁻¹ s⁻¹.

In turn, B16 registered a Kd of 10 nM, a koff of 0.00046 s⁻¹ and a kon of 46000 M⁻¹ s⁻¹.

The molecule B17 displayed a Kd of 4.34 nM, a koff of 0.00279 s⁻¹ and a kon of 642000 M⁻¹ s⁻¹.

In the case of B18, the Kd amounted to 26.4 nM, the koff came out at 0.0029 s⁻¹ and the kon came to 110000 M⁻¹ s⁻¹.

As for B19, the Kd stood at 6.08 nM, the koff turned out to be 0.00232 s⁻¹ and the kon was found to be 381000 M⁻¹ s⁻¹.

With B20, the Kd turned out to be 10.7 nM, the koff worked out at 0.000819 s⁻¹ and the kon amounted to 76800 M⁻¹ s⁻¹.

As to B21, the affinity, expressed as Kd, was 30.8 nM; the koff turned out to be 0.0115 s⁻¹; the kon turned out to be 374000 M⁻¹ s⁻¹.

B22 registered a Kd of 5.67 nM, a koff of 0.000778 s⁻¹ and a kon of 137000 M⁻¹ s⁻¹.

In the case of B23, the Kd came to 25 nM, the koff was 0.00283 s⁻¹ and the kon was found to be 113000 M⁻¹ s⁻¹.

Turning to B24, binding was characterised by a dissociation constant (Kd) of 12.1 nM, the off-rate constant (koff) is 0.00191 s⁻¹ and the kon amounted to 158000 M⁻¹ s⁻¹.

Source of the values: patent US20230272051A1 (CENTIVAX, published 2023).
